# According to the supplement of paper PMC10567573:
# B1: GLTSCR2 (parent)
# chain: LARRRRRRQARREAEADKPRRLGR
# Variants of: B1
# Assay: protein stability index of a GFP-peptide fusion (GPS, HEK-293T) (PSI 1-6); higher = more stable
# Conditions: c terminus: a fixed tail appended
# 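Further: lentivirally expressed fusions sorted by FACS into six bins by GFP to DsRed ratio, PSI derived from sequencing read proportions per bin multiplied by bin number.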
row,Variant,protein stability index
1,LARRRRRRQARRLAEADKPRRLGR [E13L],4.46
2,LARRRRRRQARRFAEADKPRRLGR [E13F],4.04
3,LARRRRRRQARRIAEADKPRRLGR [E13I],4.73
4,LARRRRRRQQRREAEADKPRRLGR [A10Q],4.95
5,LARRRRRRQNRREAEADKPRRLGR [A10N],4.6
6,LARRRRRRQKRREAEADKPRRLGR [A10K],4.02
7,LARRRRRRQCRREAEADKPRRLGR [A10C],5.01
8,LARRRRRRQIRREAEADKPRRLGR [A10I],4.55
9,LARRRRRRQERREAEADKPRRLGR [A10E],4.55
10,LARRRRRRQTRREAEADKPRRLGR [A10T],4.21
11,LARRRRRRQLRREAEADKPRRLGR [A10L],4.38
12,LARRRRRRQDRREAEADKPRRLGR [A10D],3.92
13,LARRRRRRQYRREAEADKPRRLGR [A10Y],4.9
14,HARRRRRRQARREAEADKPRRLGR [L1H],5.28
15,GARRRRRRQARREAEADKPRRLGR [L1G],5.13
16,CARRRRRRQARREAEADKPRRLGR [L1C],5.39
17,DARRRRRRQARREAEADKPRRLGR [L1D],5.28
18,VARRRRRRQARREAEADKPRRLGR [L1V],4.98
19,FARRRRRRQARREAEADKPRRLGR [L1F],4.4
20,LARRRSRRQARREAEADKPRRLGR [R6S],4.86
21,LARRRLRRQARREAEADKPRRLGR [R6L],4.6
22,LARRRDRRQARREAEADKPRRLGR [R6D],4.96
23,LARRRYRRQARREAEADKPRRLGR [R6Y],4.13
24,LARRRPRRQARREAEADKPRRLGR [R6P],4.57

row,Variant,protein stability index
1,LARRRERRQARREAEADKPRRLGR [R6E],4.03
2,LARRRFRRQARREAEADKPRRLGR [R6F],3.93
3,LARRRQRRQARREAEADKPRRLGR [R6Q],5.03
4,LARRRMRRQARREAEADKPRRLGR [R6M],4.27
5,LARRRHRRQARREAEADKPRRLGR [R6H],4.28
6,LARRRGRRQARREAEADKPRRLGR [R6G],4.55
7,LARRRRRRQARREAEADKPRRLNR [G23N],4.64
8,LARRRRRRQARREAEADKPRRLHR [G23H],4.79
9,LARRRRRRQARREAEADKPRRLAR [G23A],4.34
10,LARRRRRRQARREAEADKPRRLWR [G23W],4.46
11,LARRRRRRQARREAEADKPRRLTR [G23T],5.05
12,LARRRRRRQARREAEADKPRRLRR [G23R],4.57
13,LARRRRRRQARREAEADKPRRLFR [G23F],4.44
14,LARSRRRRQARREAEADKPRRLGR [R4S],4.17
15,LARGRRRRQARREAEADKPRRLGR [R4G],4.3
16,LARPRRRRQARREAEADKPRRLGR [R4P],4.92
17,LARHRRRRQARREAEADKPRRLGR [R4H],4.35
18,LARDRRRRQARREAEADKPRRLGR [R4D],4.64
19,LARQRRRRQARREAEADKPRRLGR [R4Q],4.18
20,LARMRRRRQARREAEADKPRRLGR [R4M],4.57
21,LARRNRRRQARREAEADKPRRLGR [R5N],5.32
22,LARRVRRRQARREAEADKPRRLGR [R5V],4.54
23,LARRIRRRQARREAEADKPRRLGR [R5I],3.79
24,LARRLRRRQARREAEADKPRRLGR [R5L],3.81

row,Variant,protein stability index
1,LARRYRRRQARREAEADKPRRLGR [R5Y],4.45
2,LARRSRRRQARREAEADKPRRLGR [R5S],4.42
3,LARRFRRRQARREAEADKPRRLGR [R5F],4.76
4,LARRDRRRQARREAEADKPRRLGR [R5D],4.52
5,LARRRRRRQARREAGADKPRRLGR [E15G],4.43
6,LARRRRRRQARREAPADKPRRLGR [E15P],4.44
7,LARRRRRRQARREAHADKPRRLGR [E15H],4.55
8,LARRRRRRQARREARADKPRRLGR [E15R],3.99
9,LARRRRRRQARREAQADKPRRLGR [E15Q],4.52
10,LARRRRRRQARREALADKPRRLGR [E15L],4.16
11,LARRRRRRQARREAEADKQRRLGR [P19Q],4.19
12,LARRRRRRQARREAEADKMRRLGR [P19M],4.08
13,LARRRRRRQARREAEADKKRRLGR [P19K],4.61
14,LARRRRRRQARREAEADKTRRLGR [P19T],4.39
15,LARRRRRRQARREAEADKWRRLGR [P19W],3.92
16,LARRRRRRQARREAEADKLRRLGR [P19L],3.91
17,LARRRRRRPARREAEADKPRRLGR [Q9P],4.85
18,LARRRRRRDARREAEADKPRRLGR [Q9D],4.44
19,LARRRRRRSARREAEADKPRRLGR [Q9S],4.57
20,LARRRRRRMARREAEADKPRRLGR [Q9M],3.79
21,LARRRRRRVARREAEADKPRRLGR [Q9V],4.22
22,LARRRRRRKARREAEADKPRRLGR [Q9K],4.33
23,LARRRRRRYARREAEADKPRRLGR [Q9Y],4.33
24,LARRRRRRCARREAEADKPRRLGR [Q9C],4.4

row,Variant,protein stability index
1,LARRRRRRAARREAEADKPRRLGR [Q9A],4.17
2,LARRRRRRGARREAEADKPRRLGR [Q9G],4.46
3,LARRRRRRRARREAEADKPRRLGR [Q9R],4.95
4,LARRRRRRQARREAEADKPRRVGR [L22V],5.4
5,LARRRRRRQARREAEADKPRRHGR [L22H],4.23
6,LARRRRRRQARREAEADKPRRDGR [L22D],5.31
7,LARRRRRRQARREAEADKPRRNGR [L22N],4.62
8,LARRRRRRQARREAEADKPRRCGR [L22C],4.53
9,LARRRRRRQARREAEADKPRRAGR [L22A],4.74
10,LARRRRRRQARREAEADKPRRQGR [L22Q],4.87
11,LARRRRRDQARREAEADKPRRLGR [R8D],4.83
12,LARRRRRGQARREAEADKPRRLGR [R8G],4.25
13,LARRRRRLQARREAEADKPRRLGR [R8L],3.48
14,LARRRRRCQARREAEADKPRRLGR [R8C],3.8
15,LARRRRRHQARREAEADKPRRLGR [R8H],4.75
16,LARRRRRFQARREAEADKPRRLGR [R8F],4.64
17,LARRRRRQQARREAEADKPRRLGR [R8Q],4.23
18,LARRRRRKQARREAEADKPRRLGR [R8K],4.3
19,LARRRRRSQARREAEADKPRRLGR [R8S],5.01
20,LARRRRRMQARREAEADKPRRLGR [R8M],4.98
21,LARRRRREQARREAEADKPRRLGR [R8E],4.83
22,LARRRRRWQARREAEADKPRRLGR [R8W],4.48
